The target in this test is Helicobacter pylori dimeric oxidoreductase DsbK (HP0231), native (Helicobacter pylori). The experiment in a line: SEC; size exclusion; conditions not shown (Supplementary Table S3). (In general: In gel filtration, larger molecules generally elute earlier.)

A word on the stoichiometry N: it is a count of units in the complex or per binding partner.

For “Helicobacter pylori dimeric oxidoreductase DsbK (HP0231), native (enzyme)”, the stoichiometry N was 2.

Source of the values: PMC4960241.
